Laboratory results reported in PMC5808845.

Legend:
[1] = target: GST-TRF2 (human, UniProt Q15554 43-542); test: EMSA
[2] = target: GST-TRF1 (human, UniProt P54274 1-439); test: EMSA
GST-TRF1, sequence (P54274 whole entry): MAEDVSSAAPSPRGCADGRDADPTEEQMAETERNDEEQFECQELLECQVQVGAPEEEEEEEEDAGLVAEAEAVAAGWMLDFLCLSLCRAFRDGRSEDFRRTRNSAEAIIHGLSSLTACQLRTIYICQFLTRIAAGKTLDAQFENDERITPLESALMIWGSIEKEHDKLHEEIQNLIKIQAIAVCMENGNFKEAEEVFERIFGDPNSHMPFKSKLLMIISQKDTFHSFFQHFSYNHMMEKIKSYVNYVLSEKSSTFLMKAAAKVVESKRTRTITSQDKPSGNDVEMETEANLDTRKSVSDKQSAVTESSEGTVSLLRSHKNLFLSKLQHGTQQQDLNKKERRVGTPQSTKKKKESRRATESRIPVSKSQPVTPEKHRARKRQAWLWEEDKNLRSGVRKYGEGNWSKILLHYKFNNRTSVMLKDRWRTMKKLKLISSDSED

GST-TRF2, sequence (Q15554 43-542): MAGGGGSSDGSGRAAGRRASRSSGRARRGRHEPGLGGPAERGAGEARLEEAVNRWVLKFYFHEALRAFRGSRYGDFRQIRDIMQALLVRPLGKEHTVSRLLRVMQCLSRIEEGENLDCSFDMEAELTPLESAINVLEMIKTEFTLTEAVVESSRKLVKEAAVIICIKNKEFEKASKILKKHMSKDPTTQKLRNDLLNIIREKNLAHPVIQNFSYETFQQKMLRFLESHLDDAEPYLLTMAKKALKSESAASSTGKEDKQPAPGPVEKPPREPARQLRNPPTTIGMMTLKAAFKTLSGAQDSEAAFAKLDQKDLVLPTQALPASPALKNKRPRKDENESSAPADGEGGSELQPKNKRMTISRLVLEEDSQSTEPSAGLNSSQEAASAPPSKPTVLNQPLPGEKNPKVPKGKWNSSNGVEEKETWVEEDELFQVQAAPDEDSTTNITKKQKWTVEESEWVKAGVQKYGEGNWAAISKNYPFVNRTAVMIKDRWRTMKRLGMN

Binder	binding result [1]	binding result [2]
TTAGGGTTAGGGTTAGGGTTAGGGTTAGGG (ssDNA) [(TTAGGG)5 DNA]	no binding	no binding
TATCGATAAGCTTGATATCGAATTCCTGCA (ssDNA) [random DNA]	no binding	no binding
AGAGAUUGCCUGACGUCAGAGAGCUAGCGA (ssRNA) [random RNA]	no binding	no binding
CCCUAACCCUAACCCUAACCCUAACCCUAA (ssRNA) [(CCCUAA)5 RNA]	no binding	no binding
